Source: article doi:10.1101/2025.03.30.646161

Tested on: P04156
Conditions: AUC

Recombinant huPrP (23-230) from E. coli
percent of total signal as aggregates: about 71 % of total signal | percent of total signal as large aggregates: 58.3 % of total signal
